Assay results as given in patent EP1086956B1.

Biological target: soluble human VEGF receptor Flt-1 3N (human) (UniProt P17948)
Test: sandwich ELISA, KM1732 coated at 10 µg/ml, detection with biotin-labeled KM1730

UniProt P17948, sequence (P17948 27-338 limits assumed): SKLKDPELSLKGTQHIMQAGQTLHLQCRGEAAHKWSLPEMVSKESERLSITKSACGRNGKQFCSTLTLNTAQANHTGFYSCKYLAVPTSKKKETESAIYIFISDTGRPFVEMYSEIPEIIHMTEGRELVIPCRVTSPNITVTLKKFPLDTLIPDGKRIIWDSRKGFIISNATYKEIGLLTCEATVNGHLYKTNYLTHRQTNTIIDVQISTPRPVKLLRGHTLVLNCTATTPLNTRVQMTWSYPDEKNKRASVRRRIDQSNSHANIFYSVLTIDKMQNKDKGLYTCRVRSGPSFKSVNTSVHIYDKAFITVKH

minimum measurable concentration: 0.46 ng/mL
B1: anti-human VEGF receptor Flt-1 mouse monoclonal antibody KM1732 (antibody, from another filing, mouse IgG1, V domains shown)
VH: QGQMQQSGAELVKPGASVKLSCKPSGFTFSSNYISWLKQKPGQSLEWIAWIYAGTGDASYNQKFTAKAHVTVDTSSSTAYMQLSSLTTEDSAIYYCARHGGDGYWFAYWGQGTLVTVSA
VL: QLVLTQSPAIMSASQGEKVTMTCSASSSVSYMHWYQQKSGTSPKRWIYDTSKLPSGVPARFSGSGSGTSYSLTISSMEAEDAATYYCQQWSSNPPTFGAGTKLELK
